We go through eight molecules from article PMC13635753, “Mechanism of NanR transcriptional activation of sialic acid metabolism in Streptococcus pneumoniae” (Nucleic Acids Research, 2025).

Where a chain is given by its changes, count along the chain named. Names may count otherwise. “And” between values parts separate entries of the source, which are not always exact repeats. Identical values can stand only once.

The target of data set [1] is T1, SpNanR (Streptococcus pneumoniae, UniProt A0A0H2ZPE9 1-283). The experiment in a line: MST; range over three sites; MST: 20 mM Tris-HCl pH 8.0, 300 mM NaCl, 0.05% Tween-20, 20 C, 20 nM FAM-DNA; AUC: 50 nM FAM-DNA, 0.019-5 uM SpNanR, buffer not in the material. To be noted: protein: recombinant; tags: none; chain copies: 2; label: 5'-FAM on sense strand.
Data set [2] deals with the molecule itself. Description: SAXS with in-line size exclusion chromatography; SpNanR without N-acetylmannosamine-6-phosphate.
Data set [3] deals with the molecule itself. Description: AUC; sedimentation velocity, SpNanR 0.27–153.5 μM with 2 mM N-acetylmannosamine-6-phosphate, 20 mM Tris–HCl pH 8.0, 300 mM NaCl, 20°C, 42 000 rpm; constant of: tetramer to dimers.
Data set [4] concerns the molecule itself. Description: AUC; sedimentation velocity, SpNanR 4.3–227.7 μM without N-acetylmannosamine-6-phosphate, 20 mM Tris–HCl pH 8.0, 300 mM NaCl, 20°C, 42 000 rpm; weight-averaged s fitted to a dimer–tetramer self-association model; constant of: tetramer to dimers.
Data set [5] deals with the molecule itself. The experiment in a line: AUC; sedimentation velocity of SpNanR variants and wild type at 15 μM, with N-acetylmannosamine-6-phosphate.
Data set [6] concerns the molecule itself. The experiment in a line: AUC; sedimentation velocity of SpNanR variants and wild type at 15 μM, without N-acetylmannosamine-6-phosphate.
Data set [7] concerns the target T1, SpNanR. The experiment in a line: MST; protein up to 5000 nM; MST: 20 mM Tris-HCl pH 8.0, 300 mM NaCl, 0.05% Tween-20, 20 C, 20 nM FAM-DNA; AUC: 50 nM FAM-DNA, 0.019-5 uM SpNanR, buffer not in the material. Particulars: protein: recombinant; tags: none; chain copies: 2; label: 5'-FAM on sense strand.
A further data set deals with SpNanR R67A (Streptococcus pneumoniae, UniProt A0A0H2ZPE9 1-283, R67A). The description is as above. To be noted: protein: recombinant; tags: none; chain copies: 2; label: 5'-FAM on sense strand.
A further data set addresses SpNanR T18A (Streptococcus pneumoniae, UniProt A0A0H2ZPE9 1-283, T18A). The data set is described as above. To be noted: protein: recombinant; tags: none; chain copies: 2; label: 5'-FAM on sense strand.
Another data set has as its target SpNanR R56A (Streptococcus pneumoniae, UniProt A0A0H2ZPE9 1-283, R56A). The data set is described as above. Particulars: protein: recombinant; tags: none; chain copies: 2; label: 5'-FAM on sense strand.
For data set [8], the target named is T1, SpNanR. Description: fluorescence-detection AUC (sedimentation velocity); no effector; Hill n 2.3; MST: 20 mM Tris-HCl pH 8.0, 300 mM NaCl, 0.05% Tween-20, 20 C, 20 nM FAM-DNA; AUC: 50 nM FAM-DNA, 0.019-5 uM SpNanR, buffer not in the material. Particulars: protein: recombinant; tags: none; chain copies: 2; label: 5'-FAM on sense strand.

B1: nanA recognition sequence (site 1) (dsDNA)
DNA 1: TCTGAAACTACTTTCAAA
DNA 2: TTTGAAAGTAGTTTCAGA
The Kd is the equilibrium constant for the complex coming apart. In the case of B1, in the data set with SpNanR [1], the Kd is approximately 603 nM.

B2: Streptococcus pneumoniae NanR (SpNanR), wild type (natural protein, UniProt A0A0H2ZPE9 1-283, looked up)
chain: MDKPDIATIIDSHFEEMTDLEQEIARYFLQAETITDDLSSQQVTQKLHISQAALTRFAKKCGFTGYREFIFQYQHQAENQANQVSKHSPLTKRVLRSYSNMREQTQDLIDEIQLERIAQLIEDAERIYFFGTGSSGLVAREMKLRFMRLGVVCEALTDQDGFAWTTSIMDENCLVLGFSLSGSTPSILDSLLDAKEMGAKTVLFTSVPNKNSQTYTETVLVATHSQPSYIQRISAQLPMLFFIDLIYAYFLEINRESKEKIFNSYWENKKLNGYRRQKRVRKS
notes: RpiR family transcriptional regulator NanR of Streptococcus pneumoniae, recombinant full length; intact mass 32 611 Da; Self-associates between dimer and tetramer; cloned into pET30ΔSE; no tag; also called SpNanR^WT; apo-SpNanR
A word on the stoichiometry N: it is the number of molecules, sites or subunits per partner or assembly. Take B2: the “stoichiometry N” value in data set [2] was 4 and 2. Further, the Kd in data set [3] is less than 200 nM; in data set [4], 97000 nM.

B3: SpNanR^D160A (natural protein)
chain: B2 chain with D160A
notes: NanR of Streptococcus pneumoniae with D160A; Variant of the full-length recombinant SpNanR; source: E. coli BL21(DE3), recombinant
For the molecule B3, the “stoichiometry N” value in data set [5] was 4; in data set [6] it was 2.

B4: SpNanR^R148A (natural protein)
chain: B2 chain with R148A
notes: NanR of Streptococcus pneumoniae with R148A; Variant of the full-length recombinant SpNanR; source: E. coli BL21(DE3), recombinant
On to B4, for which the “stoichiometry N” value in data set [6] is 2.

B5: nanE G4T (dsDNA)
DNA 1: TCTTAAAGTACTTTTAGA
DNA 2: TCTAAAAGTACTTTAAGA
With B5, the binding result with SpNanR [7] is “no binding”.

B6: nanE recognition sequence (site 2), FAM (dsDNA)
DNA 1: TCTGAAAGTACTTTTAGA
DNA 2: TCTAAAAGTACTTTCAGA
With B6, the binding result with SpNanR R67A, in the data set with SpNanR T18A and in the data set with SpNanR R56A was “no binding” in each case. Besides, the Kd was approximately 603 nM with SpNanR [1] and 476 ± 75 nM in the data set with SpNanR [8].

B7: cryptic site downstream of siaA operon (site 4) (dsDNA)
DNA 1: TCTGAAACTACTTTCAGA
DNA 2: TCTGAAAGTAGTTTCAGA
Turning to B7, the Kd with SpNanR [1] is approximately 603 nM.

B8: nanE A10C (dsDNA)
DNA 1: TCTGAAAGTCCTTTTAGA
DNA 2: TCTAAAAGGACTTTCAGA
B8: in the data set with SpNanR [7], the binding result was “no binding”.
